Data: the Human Domainome abundance scans (Beltran et al. 2025)
± gives the uncertainty stated by the source.

B1: Ankyrin-3, residues 4094 to 4171; numbered along this chain, Q12955 (parent)
chain: MAIVADHLGLSWTELARELNFSVDEINQIRVENPNSLISQSFMLLKKWVTRDGKNATTDALTSVLTKINRIDIVTLLE

Variants of: B1
Assay: abundance fitness (aPCA) (normalised: wild type 0, dead -1); higher = more abundant; growth selection in yeast, the domain comes from the species named
Details: Homo sapiens

In order of falling abundance fitness:
1. MAIVADHLGLSWTELARELNFSVDEINQIRVENPNSLISQSFMLLKKWVKRDGKNATTDALTSVLTKINRIDIVTLLE [T50K]  0.098 ± 0.082
2. MAIVADHLGLSWTELARELNFSVDEINQIRVENPNSLISQSFMLLKKWVARDGKNATTDALTSVLTKINRIDIVTLLE [T50A]  0.097 ± 0.059
3. MAIVADHLGLSWTELARELNFSVDEINQIRVENPNSLISQSFMLLKKWVDRDGKNATTDALTSVLTKINRIDIVTLLE [T50D]  0.089 ± 0.045
4. MAIVADHLGLSWTELARELNFSVDEINQIRVENPNSLISQSFMLLKKWVHRDGKNATTDALTSVLTKINRIDIVTLLE [T50H]  0.051 ± 0.081
5. MAIVADHLGLSWTELARELNFSVDEINQIRVENPNSLISQSFMLLKKWVLRDGKNATTDALTSVLTKINRIDIVTLLE [T50L]  0.041 ± 0.044
6. MAIVADHLGLSWTELARELNFSVDEINQIRVENPNSLISQSFMLLKKWVMRDGKNATTDALTSVLTKINRIDIVTLLE [T50M]  0.035 ± 0.086
7. MAIVADHLGLSWTELARELNFSVDEINQIRVENPNSLISQSFMLLKKWVGRDGKNATTDALTSVLTKINRIDIVTLLE [T50G]  0.026 ± 0.043
8. MAIVADHLGLSWTELARELNFSVDEINQIRVENPNSLISQSFMLLKKWVYRDGKNATTDALTSVLTKINRIDIVTLLE [T50Y]  0 ± 0.1
9. MAIVADHLGLSWTELARELNFSVDEINQIRVENPNSLISQSFMLLKKWVERDGKNATTDALTSVLTKINRIDIVTLLE [T50E]  -0.008 ± 0.075
10. MAIVADHLGLSWTELARELNFSVDEINQIRVENPNSLISQSFMLLKKWVSRDGKNATTDALTSVLTKINRIDIVTLLE [T50S]  -0.016 ± 0.054
11. MAIVADHLGLSWTELARELNFSVDEINQIRVENPNSLISQSFMLLKKWVQRDGKNATTDALTSVLTKINRIDIVTLLE [T50Q]  -0.024 ± 0.08
12. MAIVADHLGLSWTELARELNFSVDEINQIRVENPNSLISQSFMLLKKWVVRDGKNATTDALTSVLTKINRIDIVTLLE [T50V]  -0.036 ± 0.051
13. MAIVADHLGLSWTELARELNFSVDEINQIRVENPNSLISQSFMLLKKWVWRDGKNATTDALTSVLTKINRIDIVTLLE [T50W]  -0.065 ± 0.06
14. MAIVADHLGLSWTELARELNFSVDEINQIRVENPNSLISQSFMLLKKWVRRDGKNATTDALTSVLTKINRIDIVTLLE [T50R]  -0.094 ± 0.058
15. MAIVADHLGLSWTELARELNFSVDEINQIRVENPNSLISQSFMLLKKWVIRDGKNATTDALTSVLTKINRIDIVTLLE [T50I]  -0.18 ± 0.1
16. MAIVADHLGLSWTELARELNFSVDEINQIRVENPNSLISQSFMLLKKWVNRDGKNATTDALTSVLTKINRIDIVTLLE [T50N]  -0.204 ± 0.23
17. MAIVADHLGLSWTELARELNFSVDEINQIRVENPNSLISQSFMLLKKWVFRDGKNATTDALTSVLTKINRIDIVTLLE [T50F]  -0.247 ± 0.17
18. MAIVADHLGLSWTELARELNFSVDEINQIRVENPNSLISQSFMLLKKWVTRIGKNATTDALTSVLTKINRIDIVTLLE [D52I]  -0.255 ± 0.17
19. MAIVADHLGLSWTELARELNFSVDEINQIRVENPNSLISQSFMLLKKWVTRAGKNATTDALTSVLTKINRIDIVTLLE [D52A]  -0.274 ± 0.055
20. MAIVADHLGLSWTELARELNFSVDEINQIRVENPNSLISQSFMLLKKWVTRKGKNATTDALTSVLTKINRIDIVTLLE [D52K]  -0.358 ± 0.24
21. MAIVADHLGLSWTELARELNFSVDEINQIRVENPNSLISQSFMLLKKWVTRQGKNATTDALTSVLTKINRIDIVTLLE [D52Q]  -0.359 ± 0.062
22. MAIVADHLGLSWTELARELNFSVDEINQIRVENPNSLISQSFMLLKKWVTRDAKNATTDALTSVLTKINRIDIVTLLE [G53A]  -0.457 ± 0.077
23. MAIVADHLGLSWTELARELNFSVDEINQIRVENPNSLISQSFMLLKKWVTRDCKNATTDALTSVLTKINRIDIVTLLE [G53C]  -0.545 ± 0.15
24. MAIVADHLGLSWTELARELNFSVDEINQIRVENPNSLISQSFMLLKKWVTRCGKNATTDALTSVLTKINRIDIVTLLE [D52C]  -0.549 ± 0.17
25. MAIVADHLGLSWTELARELNFSVDEINQIRVENPNSLISQSFMLLKKWVTRVGKNATTDALTSVLTKINRIDIVTLLE [D52V]  -0.575 ± 0.076
26. MAIVADHLGLSWTELARELNFSVDEINQIRVENPNSLISQSFMLLKKWVTRHGKNATTDALTSVLTKINRIDIVTLLE [D52H]  -0.577 ± 0.2
27. MAIVADHLGLSWTELARELNFSVDEINQIRVENPNSLISQSFMLLKKWVTRSGKNATTDALTSVLTKINRIDIVTLLE [D52S]  -0.589 ± 0.085
28. MAIVADHLGLSWTELARELNFSVDEINQIRVENPNSLISQSFMLLKKWVTRTGKNATTDALTSVLTKINRIDIVTLLE [D52T]  -0.607 ± 0.098
29. MAIVADHLGLSWTELARELNFSVDEINQIRVENPNSLISQSFMLLKKWVTRGGKNATTDALTSVLTKINRIDIVTLLE [D52G]  -0.625 ± 0.066
30. MAIVADHLGLSWTELARELNFSVDEINQIRVENPNSLISQSFMLLKKWVTRNGKNATTDALTSVLTKINRIDIVTLLE [D52N]  -0.687 ± 0.41
31. MAIVADHLGLSWTELARELNFSVDEINQIRVENPNSLISQSFMLLKKWVTRYGKNATTDALTSVLTKINRIDIVTLLE [D52Y]  -0.717 ± 0.29
32. MAIVADHLGLSWTELARELNFSVDEINQIRVENPNSLISQSFMLLKKWVTRFGKNATTDALTSVLTKINRIDIVTLLE [D52F]  -0.748 ± 0.26
33. MAIVADHLGLSWTELARELNFSVDEINQIRVENPNSLISQSFMLLKKWVTRPGKNATTDALTSVLTKINRIDIVTLLE [D52P]  -0.767 ± 0.21
34. MAIVADHLGLSWTELARELNFSVDEINQIRVENPNSLISQSFMLLKKWVTRLGKNATTDALTSVLTKINRIDIVTLLE [D52L]  -0.89 ± 0.15
35. MAIVADHLGLSWTELARELNFSVDEINQIRVENPNSLISQSFMLLKKWVPRDGKNATTDALTSVLTKINRIDIVTLLE [T50P]  -1.02 ± 0.18
